32 variants from the RNAGym collection of RNA variant scans (doi:10.7554/elife.80360) can be followed below.

B1: HDV Ribozyme (parent)
chain: GGCCGGCAUGGUCCCAGCCUCCUCGCUGGCGCCGGCUGGGCAACAUUCCGAGGGGACCGUCCCCUCGGUAAUGGCGAAUGGGACCCA

The variants in this series derive from B1. As to the kind of experiment: self-cleavage, relative activity (ratio to wild type); higher = more cleavage; co-transcriptional.
As for GGCCGGCAUGGUCCCAGCCUCCUCGCUGGCGCCGGCUGGGCAACAUUCCGAGGGGACCGUCCCCUCGCUUAUGGCGAAUGGGACCCA [G68C A70U], the self-cleavage came to 0.778.
For GGCCGGCAUGGUCCCAGCCUCCUCGCUGGCGCCGGCUGGGCAACAUUCCGAGGGGACCGUCCCCUCGCUAAUGGCGAAUGGGACCCA [G68C] the value was 0.911; for GGCCGGCAUGGUCCCAGCCUCCUCGCUGGCGCCGGCUGGGCAACAUUCCGAGGGGACCGUCCCCUCGUUAAUGGCGAAUGGGACCCA [G68U], 0.932.
In the case of GGCCGGCAUGGUCCCAGCCUCCUCGCUGGCGCCGGCUGGGCAACAUUCCGAGGGGACCGUCCCCUCGAUAAUGGCGAAUGGGACCCA [G68A], the self-cleavage was 0.952.
Then GGCCGGCAUGGUCCCAGCCUCCUCGCUGGCGCCGGCUGGGCAACAUUCCGAGGGGACCGUCCCCUCGUUAAUGGCGAAUGGGACACA [G68U C85A], with 0.707; and GGCCGGCAUGGUCCCAGCCUCCUCGCUGGCGCCGGCUGGGCAACAUUCCGAGGGGACCGUCCCCUCUGUAAUGGCGAAUGGGACCAA [G67U C86A], with 1.
Then GGCCGGCAUGGUCCCAGCCUCCUCGCUGGCGCCGGCUGGGCAACAUUCCGAGGGGACCGUCCCCUCCGGAAUGGCGAAUGGGACCCA [G67C U69G], with 0.943; and GGCCGGCAUGGUCCCAGCCUCCUCGCUGGCGCCGGCUGGGCAACAUUCCGAGGGGACCGUCCCCUCCGAAAUGGCGAAUGGGACCCA [G67C U69A], with 0.96; and GGCCGGCAUGGUCCCAGCCUCCUCGCUGGCGCCGGCUGGGCAACAUUCCGAGGGGACCGUCCCCUCCGCAAUGGCGAAUGGGACCCA [G67C U69C], with 1.
With GGCCGGCAUGGUCCCAGCCUCCUCGCUGGCGCCGGCUGGGCAACAUUCCGAGGGGACCGUCCCCUCCGUAAUGGGGAAUGGGACCCA [G67C C75G], the self-cleavage is 0.0475.
With GGCCGGCAUGGUCCCAGCCUCCUCGCUGGCGCCGGCUGGGCAACAUUCCGAGGGGACCGUCCCCUCCGUAAUGGUGAAUGGGACCCA [G67C C75U], the self-cleavage stood at 0.0545.
On to GGCCGGCAUGGUCCCAGCCUCCUCGCUGGCGCCGGCUGGGCAACAUUCCGAGGGGACCGUCCCCUCUGUAAUGGCGAAUGGGAUCCA [G67U C84U], for which the self-cleavage is 0.771.
Then GGCCGGCAUGGUCCCAGCCUCCUCGCUGGCGCCGGCUGGGCAACAUUCCGAGGGGACCGUCCCCUCGAUACUGGCGAAUGGGACCCA [G68A A71C], with 0.58; and GGCCGGCAUGGUCCCAGCCUCCUCGCUGGCGCCGGCUGGGCAACAUUCCGAGGGGACCGUCCCCUCGAGAAUGGCGAAUGGGACCCA [G68A U69G], with 0.917.
With GGCCGGCAUGGUCCCAGCCUCCUCGCUGGCGCCGGCUGGGCAACAUUCCGAGGGGACCGUCCCCUCGUUAAUGGAGAAUGGGACCCA [G68U C75A], the self-cleavage came out at 0.234.
Then GGCCGGCAUGGUCCCAGCCUCCUCGCUGGCGCCGGCUGGGCAACAUUCCGAGGGGACCGUCCCCUCGUUAAUGCCGAAUGGGACCCA [G68U G74C], with 0.222; and GGCCGGCAUGGUCCCAGCCUCCUCGCUGGCGCCGGCUGGGCAACAUUCCGAGGGGACCGUCCCCUCGUUAAUGACGAAUGGGACCCA [G68U G74A], with 0.328; and GGCCGGCAUGGUCCCAGCCUCCUCGCUGGCGCCGGCUGGGCAACAUUCCGAGGGGACCGUCCCCUCCGUAAUGGCAAAUGGGACCCA [G67C G76A], with 1.11.
For the variant GGCCGGCAUGGUCCCAGCCUCCUCGCUGGCGCCGGCUGGGCAACAUUCCGAGGGGACCGUCCCCUCCGUAAUGGCUAAUGGGACCCA [G67C G76U], the self-cleavage came to 1.11.
Then GGCCGGCAUGGUCCCAGCCUCCUCGCUGGCGCCGGCUGGGCAACAUUCCGAGGGGACCGUCCCCUCCGUAAUGCCGAAUGGGACCCA [G67C G74C], with 0.123; and GGCCGGCAUGGUCCCAGCCUCCUCGCUGGCGCCGGCUGGGCAACAUUCCGAGGGGACCGUCCCCUCGCUAAUGACGAAUGGGACCCA [G68C G74A], with 0.362.
As to GGCCGGCAUGGUCCCAGCCUCCUCGCUGGCGCCGGCUGGGCAACAUUCCGAGGGGACCGUCCCCUCUGUAAUGGUGAAUGGGACCCA [G67U C75U], the self-cleavage worked out at 0.104.
Regarding GGCCGGCAUGGUCCCAGCCUCCUCGCUGGCGCCGGCUGGGCAACAUUCCGAGGGGACCGUCCCCUCGAUAAUGGCGAAUGGUACCCA [G68A G82U], the self-cleavage stood at 0.324.
For GGCCGGCAUGGUCCCAGCCUCCUCGCUGGCGCCGGCUGGGCAACAUUCCGAGGGGACCGUCCCCUCGCUAAUGGCGAAUGGCACCCA [G68C G82C] the value was 0.259; for GGCCGGCAUGGUCCCAGCCUCCUCGCUGGCGCCGGCUGGGCAACAUUCCGAGGGGACCGUCCCCUCGUUAAUGGCGGAUGGGACCCA [G68U A77G], 0.578; for GGCCGGCAUGGUCCCAGCCUCCUCGCUGGCGCCGGCUGGGCAACAUUCCGAGGGGACCGUCCCCUCGUUAAUGGCGCAUGGGACCCA [G68U A77C], 0.232.
Then GGCCGGCAUGGUCCCAGCCUCCUCGCUGGCGCCGGCUGGGCAACAUUCCGAGGGGACCGUCCCCUCGUUAAUGGCGAAUUGGACCCA [G68U G80U], with 0.257.
As for GGCCGGCAUGGUCCCAGCCUCCUCGCUGGCGCCGGCUGGGCAACAUUCCGAGGGGACCGUCCCCUCGCUAAUGGCGAAUGGGUCCCA [G68C A83U], the self-cleavage was 0.318.
GGCCGGCAUGGUCCCAGCCUCCUCGCUGGCGCCGGCUGGGCAACAUUCCGAGGGGACCGUCCCCUCGUUAAUGGCGACUGGGACCCA [G68U A78C]: the self-cleavage is 0.161.
Consider GGCCGGCAUGGUCCCAGCCUCCUCGCUGGCGCCGGCUGGGCAACAUUCCGAGGGGACCGUCCCCUCGCUAAUGGCGAAGGGGACCCA [G68C U79G], for which the self-cleavage was determined as 0.516.
Turning to GGCCGGCAUGGUCCCAGCCUCCUCGCUGGCGCCGGCUGGGCAACAUUCCGAGGGGACCGUCCCCUCGAUAAUGGCGAAUGGGACCCC [G68A A87C], the self-cleavage was found to be 0.918.
For GGCCGGCAUGGUCCCAGCCUCCUCGCUGGCGCCGGCUGGGCAACAUUCCGAGGGGACCGUCCCCUCCGUAAGGGCGAAUGGGACCCA [G67C U72G], the self-cleavage was 0.231.
